Target: His-PADI4 (human, UniProt Q9UM07 1-663)
Test: pull-down

Sequence of His-PADI4 (Q9UM07 whole entry): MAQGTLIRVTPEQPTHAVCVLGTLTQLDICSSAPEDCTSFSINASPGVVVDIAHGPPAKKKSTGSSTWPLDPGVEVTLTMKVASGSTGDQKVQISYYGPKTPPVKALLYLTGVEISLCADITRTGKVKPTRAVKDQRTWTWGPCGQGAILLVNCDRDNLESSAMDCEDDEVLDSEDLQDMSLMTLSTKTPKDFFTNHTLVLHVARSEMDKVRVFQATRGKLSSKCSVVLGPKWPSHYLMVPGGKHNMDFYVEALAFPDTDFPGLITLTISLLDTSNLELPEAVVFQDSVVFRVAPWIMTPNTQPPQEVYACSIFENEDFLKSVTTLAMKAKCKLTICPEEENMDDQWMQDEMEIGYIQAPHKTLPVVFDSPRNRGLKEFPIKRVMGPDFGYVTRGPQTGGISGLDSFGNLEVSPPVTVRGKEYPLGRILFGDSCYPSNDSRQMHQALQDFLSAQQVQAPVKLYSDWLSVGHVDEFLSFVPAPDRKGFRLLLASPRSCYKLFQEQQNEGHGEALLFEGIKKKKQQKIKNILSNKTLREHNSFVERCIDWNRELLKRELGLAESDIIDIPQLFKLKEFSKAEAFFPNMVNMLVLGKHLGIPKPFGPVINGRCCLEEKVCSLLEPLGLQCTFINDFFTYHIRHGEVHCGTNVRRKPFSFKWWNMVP

B1: GST-HIF-1α (575-786) (domain or fragment, human, UniProt Q16665 575-786, looked up)
chain: RSFDQLSPLESSSASPESASPQSTVTVFQQTQIQEPTANATTTTATTDELKTVTKDRMEDIKILIASPSPTHIHKETTSATSSPYRDTQSRTASPNRAGKGVIEQTEKSHPRSPNVLSVALSQRTTVPEEELNPKILALQNAQRKRKMEHDGSLFQAVGIGTLLQQPDDHAATTSLSWKRVKGCKSSEQNGMEQKTIILIPSDLACRLLGQS
B1: binds.

— paper PMC11372217 (Nature Communications, 2024)
